Test results as given in paper PMC2610422.

Biological target: transmembrane glycoprotein gp41 of HIV-1 strain BaL, in the native spike on virions (HIV-1 strain BaL)
Assay: cryo-EM structure

For “transmembrane glycoprotein gp41 of HIV-1 strain BaL, in the native spike on virions (natural protein)”, the stoichiometry N was 3.
